Numbering of substitutions follows the chain as printed. Values joined by “and” are separate entries in the source; they are usually repeats but may differ in a detail not shown here. Identical values can stand only once.
Key:
[1] = target: Recombinant his-tagged HA1 from H7N7 strain A/Chicken/Netherlands/01/03 (Abcam Cat. No. ab61286) (Influenza A virus A/Chicken/Netherlands/01/03 (H7N7))
[2] = target: recombinant his-tagged HA0 trimer from H5N1 strain A/Anhui/1/2005 (Abcam, Cat. No. ab53938) (influenza A virus A/Anhui/1/2005 (H5N1)); experiment: ELISA on recombinant haemagglutinin, detection with rabbit anti-NANOBODY serum
[3] = target: recombinant his6-tagged haemagglutinin HA1, Abcam ab53875; experiment: as above
[4] = substrate: F protein of hRSV strain B-1 (human respiratory syncytial virus, strain B-1 (ATCC VR-1580)) (UniProt P13843); experiment: cell-based or functional assay
[5] = substrate: F protein of hRSV strain Long (human respiratory syncytial virus, strain Long (ATCC VR-26)) (UniProt P12568); experiment: cell-based or functional assay
[6] = substrate: F protein of hRSV strain Long (human respiratory syncytial virus, strain Long) (UniProt P12568); experiment: cell-based or functional assay
[7] = target: Rabies virus glycoprotein G, Challenge Virus Standard (CVS)-11 strain (Rabies virus, strain CVS-11 (genotype 1 Lyssavirus)) (UniProt O92284); experiment: cell-based or functional assay
[8] = target: Rabies virus glycoprotein G, ERA strain (attenuated vaccine strain, ATCC VR332) (Rabies virus, ERA strain (genotype 1 lyssavirus)) (UniProt P03524); experiment: cell-based or functional assay
[9] = target: Rabies virus glycoprotein G, strain CVS-11 (ATCC VR 959) (Rabies virus, strain CVS-11 (genotype 1)); experiment: cell-based or functional assay

B1: IV21 (yeast-produced NANOBODY (VHH sequence)) (VHH)
VHH: QVQLQQSGGGLVQAGGFLRLSCAASGRSFNTYAMGWFRQAPGKEREFVAGITRSGTATDYIDSVKGRFTISRDNARDTVYLQMNRLNPEDSAVYYCAAHANYDRMINSEYKYWGQGTQVTVSS
ELISA titer (NANOBODY concentration giving extinction 1) [1]: 69 ng/mL

B2: IV155 (VHH)
VHH: QVQLQESGGGLVQAGGSLRLSCAASGRSLSRYAMGWFRQAPGKEREFVATKTSGGVTYYGASVKGRFTISRDNAKNMVYLQMNSLNPEDTAIYYCAAGTDAIFKPWMLPDYWGQGTQVTVSG
ELISA titer (NANOBODY concentration giving extinction 1) [2]: > 10000 ng/mL | ELISA titer (NANOBODY concentration giving extinction 1) [3]: > 10000 ng/mL

B3: NC41v06 (VHH)
VHH: EVQLLESGGGLVQPGGSLRLSCAASGGSLSNYVLGWFRQAPGKGREFVAAINWRDDITIGPPNVEGRFTISRDNAKNTLYLQMNSLRPEDTAVYYCGAGTPLNPGAYIYDWSYDYWGQGTLVTVSS
Neutralization IC50 (nM), B-1 (first assay) [4]: 806 nM | Neutralization IC50 (nM), Long (first assay) [5]: 111 nM

B4: NC41v18 (VHH)
VHH: B3 VHH with A75S
Neutralization IC50 (nM), B-1 (first assay) [4]: 728 nM | Neutralization IC50 (nM), B-1 (second assay) [4]: 194 nM | Neutralization IC50 (nM), Long (first assay) [5]: 116 nM | Neutralization IC50 (nM), Long (second assay) [5]: 98 nM

B5: IV144 (VHH)
VHH: QVQLQQSGGGLVQAGGSLRLSCAASGNIISFNPMGWHRQAPGKQRELVASITSGGSISYVDSVKGRFTISRDSAKNTIYLQMNSLKPEDTAVYFCAGEGPRRRGSTWYTDTYWGQGTQVTVSS
ELISA titer (NANOBODY concentration giving extinction 1) [2]: 33.1 ng/mL | ELISA titer (NANOBODY concentration giving extinction 1) [3]: 34.8 ng/mL

B6: IV1 (yeast-produced NANOBODY (VHH sequence)) (VHH)
VHH: QVQLQESGGGLVETGGSLRLSCAASGRTFGGYALAWFRQAPGKGREFVAAVTWTSGTTNYAGSVKDRFTVSRDNAGNTMYLQMNSLRPEDTAVYICGAASGYRSPDRLSEPNWVNYWGQGTQVTVSS
ELISA titer (NANOBODY concentration giving extinction 1) [1]: 62.2 ng/mL

B7: IV133 (VHH)
VHH: QVQLQQSGGGLVQPGGSLRLSCAASSSGFSFNPMGWYRQAPGKQRELVATMTSGGTTNYADSVKGRFTISRDNAKTTVYLQMNSLKPEDTAVYYCNARGPRRATTGWITDDYWGQGTQVTVSS
ELISA titer (NANOBODY concentration giving extinction 1) [2]: 39.1 ng/mL | ELISA titer (NANOBODY concentration giving extinction 1) [3]: 32.5 ng/mL

B8: IV157 (VHH)
VHH: B7 VHH with S26R, G28D, F29I, M51I, T52S, S53N, R71Q, A97G, R102Y, I108Y
ELISA titer (NANOBODY concentration giving extinction 1) [2]: 30.6 ng/mL | ELISA titer (NANOBODY concentration giving extinction 1) [3]: 9.9 ng/mL

B9: IV156 (VHH)
VHH: B7 VHH with S26R, M51I, R71T, Y79F, A97G, A103G, T105A, I108F
ELISA titer (NANOBODY concentration giving extinction 1) [2]: 51.9 ng/mL | ELISA titer (NANOBODY concentration giving extinction 1) [3]: 33 ng/mL

B10: IV154 (VHH)
VHH: QVQLQESGGGLVQAGGSLRLSCAASGRPFSSAAMGWFRQAPGKEREFVSAISYTGDVTRYADSVKGRFTISRDNTRNTLTLEMNSLKPEDTAVYYCAARTYAGVRAHTYDYDYWGQGTQVTVSS
ELISA titer (NANOBODY concentration giving extinction 1) [2]: > 10000 ng/mL | ELISA titer (NANOBODY concentration giving extinction 1) [3]: > 10000 ng/mL

B11: LG192C6 (VHH)
VHH: EVQLVESGGGLVQAGGSLRLSCEASGRTERYQAMGWFRQAPGKEREFVAVVTRWSGARTVYADSVKGRFTISRDNAENTVYLQMNSLKPEDTAVYTCAADSTNRNRGAIYYTWAYDYWGQGTQVTVSS
hRSV micro neutralization, strain Long on Hep2 cells [6]: > 3 µM

B12: LG192H2 (VHH)
VHH: B11 VHH with E29F, R30S, Y31N, Q32Y, A57G, R106S, I109W, Y117H
hRSV micro neutralization, strain Long on Hep2 cells [6]: > 3 µM

B13: NC41 (VHH)
VHH: EVQLVESGGGLVQAGGSLSISCAASGGSLSNYVLGWFRQAPGKEREFVAAINWRGDITIGPPNVEGRFTISRDNAKNTGYLQMNSLAPDDTAVYYCGAGTPLNPGAYIYDWSYDYWGRGTQVTVSS
Neutralization IC50 (nM), B-1 (first assay) [4]: 4710 nM | Neutralization IC50 (nM), B-1 (second assay) [4]: 3290 nM | Neutralization IC50 (nM), Long (first assay) [5]: 202 nM | Neutralization IC50 (nM), Long (second assay) [5]: 122 nM

B14: NC41v03 (VHH)
VHH: B3 VHH with L20I, D55G, A75S
Neutralization IC50 (nM), B-1 (first assay) [4]: 1510 nM | Neutralization IC50 (nM), Long (first assay) [5]: 255 nM

B15: LG213E6 (VHH)
VHH: EVQLVESGGGLVQAGASLRLSCAASGSTLSRYGVGWFRQAPGKERELVASVDWSGSRTYYADSVKGRFTISRDNAKNTGYLQMNSLKPDDTAVYYCAADSSVVPGIEKYDDWGLGTQVTVSS
CVS-11 neutralizing antibody titer (RFFIT), IU/mg [7]: 170 IU/mg | CVS-11 neutralizing antibody titer (RFFIT), IU/ml [7]: 112 IU/ml | CVS-11 neutralizing antibody titer (RFFIT), IU/µM [7]: 2.54 IU/µM | CVS-11 neutralizing antibody titer (RFFIT), nM IC50 [7]: 13.7 nM | ERA neutralizing antibody titer (RFFIT): EU/mg [8]: 155 EU/mg | ERA neutralizing antibody titer (RFFIT): EU/ml [8]: 288 EU/ml | ERA neutralizing antibody titer (RFFIT): EU/µM [8]: 2.31 EU/µM | ERA neutralizing antibody titer (RFFIT): nM IC50 [8]: 14.4 nM | CVS neutralizing antibody titer: IU/mg [9]: 65.8 IU/mg and 83.8 IU/mg and 98.3 IU/mg | CVS neutralizing antibody titer: IU/ml [9]: 98.6 IU/ml and 156 IU/ml and 183 IU/ml | CVS neutralizing antibody titer: IU/µM [9]: 0.98 IU/µM and 1.25 IU/µM and 1.47 IU/µM | CVS neutralizing antibody titer: nM IC50 [9]: 33.6 nM and 23.7 nM and 20.2 nM

B16: IV146 (VHH)
VHH: QVQLQQSGGGLVQAGGSLRLSCAASGSSFSINAMGWYRQAPGKQRELVAAISSGGSANYADSVKGRFTISRDNAKNTVYLQMNSLKPEDTAVYYCNAGSRFNPFGSAYDYWGQGTQVTVSS
ELISA titer (NANOBODY concentration giving extinction 1) [2]: 162 ng/mL | ELISA titer (NANOBODY concentration giving extinction 1) [3]: 62.9 ng/mL

B17: IV25 (yeast-produced NANOBODY (VHH sequence)) (VHH)
VHH: QVQLQQSGGGLVQSGGSLSLSCAASGITLNNRVVGWFRQAPGKEREFVGRIMWSVGDTFYARSVKGRFTISRDNAKNTMYLQMNALKPEDTAVYYCAAARDPDLYTGQYEYWGQGTQVTVSS
ELISA titer (NANOBODY concentration giving extinction 1) [1]: 27.8 ng/mL

B18: IV37 (yeast-produced NANOBODY (VHH sequence)) (VHH)
VHH: QVQLQESGGGLVQAGDSLRLSCAAPGRSFSGGAMSWFRQVPGKEREFVAAIRWSGGGIRYADSVKGRFTISRDNAKNTFYLQMNSLKPEDTAVYYCAIDPRADLVATMTSIRYWGQGTQVTVSS
ELISA titer (NANOBODY concentration giving extinction 1) [1]: 31.4 ng/mL

B19: LG213H7 (VHH)
VHH: EVQLVESGGGLVQAGGSLRLSCAASGRTLSSYRMGWFRQAPGKEREFISTISWNGRSTYYADSVKGRFIFSEDNAKNTVYLQMNSLKPEDTAVYYCAAALIGGYYSDVDAWSYWGPGTQVTVSS
CVS-11 neutralizing antibody titer (RFFIT), IU/mg [7]: 12.2 IU/mg | CVS-11 neutralizing antibody titer (RFFIT), IU/ml [7]: 1.71 IU/ml | CVS-11 neutralizing antibody titer (RFFIT), IU/µM [7]: 0.18 IU/µM | CVS-11 neutralizing antibody titer (RFFIT), nM IC50 [7]: 191 nM | ERA neutralizing antibody titer (RFFIT): EU/mg [8]: 87.4 EU/mg | ERA neutralizing antibody titer (RFFIT): EU/ml [8]: 12.2 EU/ml | ERA neutralizing antibody titer (RFFIT): EU/µM [8]: 1.3 EU/µM | ERA neutralizing antibody titer (RFFIT): nM IC50 [8]: 25.6 nM | CVS neutralizing antibody titer: IU/mg [9]: 30.1 IU/mg and 12.6 IU/mg | CVS neutralizing antibody titer: IU/ml [9]: 4.22 IU/ml and 1.76 IU/ml | CVS neutralizing antibody titer: IU/µM [9]: 0.45 IU/µM and 0.19 IU/µM | CVS neutralizing antibody titer: nM IC50 [9]: 62.5 nM and 156 nM

B20: IV29 (yeast-produced NANOBODY (VHH sequence)) (VHH)
VHH: QVQLQESGGGLVQAGGSLRLSCVASGRTLDNYAMGWFRQAPGAEREFVGAISANGEDTQYTESVQGRFTISKDNAKSTVYLDMNSLKPEDTAVYYCAADRKTLTYYTSRLRSRYEYWGQGTQVTVSS
ELISA titer (NANOBODY concentration giving extinction 1) [1]: 7.2 ng/mL

B21: IV5 (yeast-produced NANOBODY (VHH sequence)) (VHH)
VHH: QVQLQQSGGGLVQAGGSLRLSCAASGRTFSTTGMGWFRQAPGKEREFVAAFWWTGGQTFYADSVKGRFTISGDNAGNTVDLQMNSLKPEDTAVYACAAMSKPRNLWRTDSYDYWGQGTQVTVSS
ELISA titer (NANOBODY concentration giving extinction 1) [1]: 30.7 ng/mL

B22: LG214E8 (VHH)
VHH: EVQLVESGGGSVQAGGSLRLSCAASGGTFNPYVMAWFRQAPGNEREFVARIRWSGGDAYYDDSVKGRFAITRDAAKNTVHLQMNSLKPEDTAVYYCAAATYGYGSYTYGGSYDLWGQGTQVTVSS
CVS-11 neutralizing antibody titer (RFFIT), IU/mg [7]: 9.37 IU/mg | CVS-11 neutralizing antibody titer (RFFIT), IU/ml [7]: 4.87 IU/ml | CVS-11 neutralizing antibody titer (RFFIT), IU/µM [7]: 0.14 IU/µM | CVS-11 neutralizing antibody titer (RFFIT), nM IC50 [7]: 249 nM | ERA neutralizing antibody titer (RFFIT): EU/mg [8]: < 0.96 EU/mg | ERA neutralizing antibody titer (RFFIT): EU/ml [8]: < 0.5 EU/ml | ERA neutralizing antibody titer (RFFIT): EU/µM [8]: < 0.02 EU/µM | ERA neutralizing antibody titer (RFFIT): nM IC50 [8]: > 3870 nM | CVS neutralizing antibody titer: IU/mg [9]: 14.2 IU/mg and 10.1 IU/mg and 6.12 IU/mg | CVS neutralizing antibody titer: IU/ml [9]: 7.38 IU/ml and 5.26 IU/ml and 3.18 IU/ml | CVS neutralizing antibody titer: IU/µM [9]: 0.21 IU/µM and 0.15 IU/µM and 0.09 IU/µM | CVS neutralizing antibody titer: nM IC50 [9]: 124 nM and 196 nM and 323 nM

B23: IV26 (yeast-produced NANOBODY (VHH sequence)) (VHH)
VHH: QVQLQESGGGLVRTGDSLRLSCAASGRTFNGYAMAWFRQAPGKGREFVAAVTWSSGTTNYAGSVKDRFTVSRDNANNTMYLQMNSLKPEDTAVYICGAASGYRSTDRLSDPAWTNYWGQGTQVTVSS
ELISA titer (NANOBODY concentration giving extinction 1) [1]: 80.6 ng/mL

B24: IV131 (VHH)
VHH: QVQLQQSGGGLVQAGGSLRLSCAASGSGFSFNPMGWYRQAPGKQRELVASITSGGTTNYVDSVKGRFTISRGNAKNTVYLQMNSLKPEDTAVYYCAAEGPRRRGSTWYTDNYWGQGTQVTVSS
ELISA titer (NANOBODY concentration giving extinction 1) [2]: 36.8 ng/mL | ELISA titer (NANOBODY concentration giving extinction 1) [3]: 32 ng/mL
